Data set [1] deals with the molecule itself. Description: cross-linking; in vivo DSS cross-linking (1 mM DSS for 10 minutes, room temperature, PBS) of HEK293 expressing HA-RBM45 constructs; SDS-PAGE and immunoblot.
Data set [2] concerns the molecule itself. The data set is described as follows: cross-linking; in vivo DSS cross-linking of live HEK293 stably expressing FLAG-RBM45, DSS 0 to 5000 uM; denaturing SDS-PAGE and immunoblot. In general terms: A western blot detects proteins with antibodies after separation by electrophoresis.

Values joined by “and” are separate entries in the source; they are usually repeats but may differ in a detail not shown here. Identical values can stand only once.

B1: truncated HA-RBM45 variant (107–474) that lacks RRM1 (domain or fragment, human, UniProt Q8IUH3-3 107-474, looked up)
chain: RSSGSHRDVEDEELTRIFVMIPKSYTEEDLREKFKVYGDIEYCSIIKNKVTGESKGLGYVRYLKPSQAAQAIENCDRSFRAILAEPKNKASESSEQDYYSNMRQEALGHEPRVNMFPFEQQSEFSSFDKNDSRGQEAISKRLSVVSRVPFTEEQLFSIFDIVPGLEYCEVQRDPYSNYGHGVVQYFNVASAIYAKYKLHGFQYPPGNRIGVSFIDDGSNATDLLRKMATQMVAAQLASMVWNNPSQQQFMQFGGSSGSQLPQIQTDVVLPSCKKKAPAETPVKERLFIVFNPHPLPLDVLEDIFCRFGNLIEVYLVSGKNVGYAKYADRISANDAIATLHGKILNGVRLKVMLADSPREESNKRQRTY
notes: source: HEK293, transfected, in cells; not shown: 2xHA, N-terminal, kept
As a reminder, the stoichiometry N is the number of molecules, sites or subunits per partner or assembly. In the case of B1, the “stoichiometry N” value in data set [1] was determined as 5.

B2: FLAG-tagged RBM45 (full-length FLAG-RBM45) (natural protein, human, UniProt Q8IUH3-3 1-474, looked up)
chain: MDEAGSSASGGGFRPGVDSLDEPPNSRIFLVISKYTPESVLRERFSPFGDIQDIWVVRDKHTKESKGIAFVKFARSSQACRAMEEMHGQCLGPNDTKPIKVFIAQSRSSGSHRDVEDEELTRIFVMIPKSYTEEDLREKFKVYGDIEYCSIIKNKVTGESKGLGYVRYLKPSQAAQAIENCDRSFRAILAEPKNKASESSEQDYYSNMRQEALGHEPRVNMFPFEQQSEFSSFDKNDSRGQEAISKRLSVVSRVPFTEEQLFSIFDIVPGLEYCEVQRDPYSNYGHGVVQYFNVASAIYAKYKLHGFQYPPGNRIGVSFIDDGSNATDLLRKMATQMVAAQLASMVWNNPSQQQFMQFGGSSGSQLPQIQTDVVLPSCKKKAPAETPVKERLFIVFNPHPLPLDVLEDIFCRFGNLIEVYLVSGKNVGYAKYADRISANDAIATLHGKILNGVRLKVMLADSPREESNKRQRTY
notes: pcDNA3; band of 56.6 kD; also called 3xFLAG-RBM45; FLAG-RMB45; source: HEK293, transfected or stably expressing, in lysate or in cells; not shown: 3xFLAG, N-terminal, kept
As for B2, the “stoichiometry N” value in data set [2] was 2 and 5.

B3: HA-RBM45 NLS M2/3 double mutant (natural protein, human, UniProt Q8IUH3-3 1-474, looked up)
chain: MDEAGSSASGGGFRPGVDSLDEPPNSRIFLVISKYTPESVLRERFSPFGDIQDIWVVRDKHTKESKGIAFVKFARSSQACRAMEEMHGQCLGPNDTKPIKVFIAQSRSSGSHRDVEDEELTRIFVMIPKSYTEEDLREKFKVYGDIEYCSIIKNKVTGESKGLGYVRYLKPSQAAQAIENCDRSFRAILAEPKNKASESSEQDYYSNMRQEALGHEPRVNMFPFEQQSEFSSFDKNDSRGQEAISKRLSVVSRVPFTEEQLFSIFDIVPGLEYCEVQRDPYSNYGHGVVQYFNVASAIYAKYKLHGFQYPPGNRIGVSFIDDGSNATDLLRKMATQMVAAQLASMVWNNPSQQQFMQFGGSSGSQLPQIQTDVVLPSCKKKAPAETPVKERLFIVFNPHPLPLDVLEDIFCRFGNLIEVYLVSGKNVGYAKYADRISANDAIATLHGKILNGVALAVMLADSPAEESNAAQATY
notes: also called NLS-M2/3 mutant; HA-RBM45-NLS mutant; source: HEK293, transfected, in lysate or in cells; not shown: 2xHA, N-terminal, kept
B3: the “stoichiometry N” value in data set [1] is 5.

B4: HA-tagged full-length RBM45 (natural protein, human, UniProt Q8IUH3-3 1-474, looked up)
chain: MDEAGSSASGGGFRPGVDSLDEPPNSRIFLVISKYTPESVLRERFSPFGDIQDIWVVRDKHTKESKGIAFVKFARSSQACRAMEEMHGQCLGPNDTKPIKVFIAQSRSSGSHRDVEDEELTRIFVMIPKSYTEEDLREKFKVYGDIEYCSIIKNKVTGESKGLGYVRYLKPSQAAQAIENCDRSFRAILAEPKNKASESSEQDYYSNMRQEALGHEPRVNMFPFEQQSEFSSFDKNDSRGQEAISKRLSVVSRVPFTEEQLFSIFDIVPGLEYCEVQRDPYSNYGHGVVQYFNVASAIYAKYKLHGFQYPPGNRIGVSFIDDGSNATDLLRKMATQMVAAQLASMVWNNPSQQQFMQFGGSSGSQLPQIQTDVVLPSCKKKAPAETPVKERLFIVFNPHPLPLDVLEDIFCRFGNLIEVYLVSGKNVGYAKYADRISANDAIATLHGKILNGVRLKVMLADSPREESNKRQRTY
notes: pcDNA3; also called HA-RBM45; HA-RBM45 wild-type; source: HEK293, transfected, in lysate or in cells; not shown: 2xHA, N-terminal, kept
Take B4: in data set [1], the “stoichiometry N” value was 5 and 10.

B5: HA-RBM45 deletion construct D2 (Δ230–234) (natural protein, human, UniProt Q8IUH3-3 1-474, looked up)
chain: MDEAGSSASGGGFRPGVDSLDEPPNSRIFLVISKYTPESVLRERFSPFGDIQDIWVVRDKHTKESKGIAFVKFARSSQACRAMEEMHGQCLGPNDTKPIKVFIAQSRSSGSHRDVEDEELTRIFVMIPKSYTEEDLREKFKVYGDIEYCSIIKNKVTGESKGLGYVRYLKPSQAAQAIENCDRSFRAILAEPKNKASESSEQDYYSNMRQEALGHEPRVNMFPFEQQSEKNDSRGQEAISKRLSVVSRVPFTEEQLFSIFDIVPGLEYCEVQRDPYSNYGHGVVQYFNVASAIYAKYKLHGFQYPPGNRIGVSFIDDGSNATDLLRKMATQMVAAQLASMVWNNPSQQQFMQFGGSSGSQLPQIQTDVVLPSCKKKAPAETPVKERLFIVFNPHPLPLDVLEDIFCRFGNLIEVYLVSGKNVGYAKYADRISANDAIATLHGKILNGVRLKVMLADSPREESNKRQRTY
notes: source: HEK293, transfected, in lysate or in cells; not shown: 2xHA, N-terminal, kept
Consider B5, for which, in data set [1], the “stoichiometry N” value came out at 5.

B6: HA-RBM45 deletion construct D1 (Δ212–216) (natural protein, human, UniProt Q8IUH3-3 1-474, looked up)
chain: MDEAGSSASGGGFRPGVDSLDEPPNSRIFLVISKYTPESVLRERFSPFGDIQDIWVVRDKHTKESKGIAFVKFARSSQACRAMEEMHGQCLGPNDTKPIKVFIAQSRSSGSHRDVEDEELTRIFVMIPKSYTEEDLREKFKVYGDIEYCSIIKNKVTGESKGLGYVRYLKPSQAAQAIENCDRSFRAILAEPKNKASESSEQDYYSNMRQEPRVNMFPFEQQSEFSSFDKNDSRGQEAISKRLSVVSRVPFTEEQLFSIFDIVPGLEYCEVQRDPYSNYGHGVVQYFNVASAIYAKYKLHGFQYPPGNRIGVSFIDDGSNATDLLRKMATQMVAAQLASMVWNNPSQQQFMQFGGSSGSQLPQIQTDVVLPSCKKKAPAETPVKERLFIVFNPHPLPLDVLEDIFCRFGNLIEVYLVSGKNVGYAKYADRISANDAIATLHGKILNGVRLKVMLADSPREESNKRQRTY
notes: also called HA-RBM45 D1 mutant; source: HEK293, transfected, in lysate or in cells; not shown: 2xHA, N-terminal, kept
As to B6, the “stoichiometry N” value in data set [1] came to 5.
